Source: patent US11286304B2, “Anti-galectin-7 antibody, kit comprising the same, and uses thereof” (Academia Sinica, priority 2018, dated 2022)

B1: IL-22: immune stimulus (protein, UniProt Q9GZX6 34-179, looked up)
Interleukin-22: APISSHCRLDKSNFQQPYITNRTFMLAKEASLADNNTDVRLIGEKLFHGVSMSERCYLMKQVLNFTLEEVLFPQSDRFQPYMQEVVPFLARLSNRLSTCHIEGDDLHIQRNVQKLKDTVKKLGESGEIKAIGELDLLFMSLRNACI
B2: IL-23: cytokine known to promote psoriatic inflammation (protein, UniProt Q9NPF7 20-189; P29460 23-328, looked up)
Interleukin-23 subunit alpha: RAVPGGSSPAWTQCQQLSQKLCTLAWSAHPLVGHMDLREEGDEETTNDVPHIQCGDGCDPQGLRDNSQFCLQRIHQGLIFYEKLLGSDIFTGEPSLLPDSPVGQLHASLLGLSQLLQPEGHHWETQQIPSLSPSQPWQRLLLRFKILRSLQAFVAVAARVFAHGAATLSP
Interleukin-12 subunit beta: IWELKKDVYVVELDWYPDAPGEMVVLTCDTPEEDGITWTLDQSSEVLGSGKTLTIQVKEFGDAGQYTCHKGGEVLSHSLLLLHKKEDGIWSTDILKDQKEPKNKTFLRCEAKNYSGRFTCWWLTTISTDLTFSVKSSRGSSDPQGVTCGAATLSAERVRGDNKEYEYSVECQEDSACPAAEESLPIEVMVDAVHKLKYENYTSSFFIRDIIKPDPPKNLQLKPLKNSRQVEVSWEYPDTWSTPHSYFSLTFCVQVQGKSKREKKDRVFTDKTSATVICRKNASISVRAQDRYYSSSWSEWASVPCS

Assays:
Assay type in all cases: cell-based, human
IL-6 = IL-6 production by keratinocytes (ELISA); details: HaCaT and HEKn cells subjected to immune stimuli, ELISA
Method: (§1) To measure the concentrations of proinflammatory cytokines secreted by keratinocytes, 2×10^4 cells were seeded in 96-well plates. Cells were incubated for 24 hours and then treated with 50 μg/ml LPS, 100 ng/ml human TNF-α, 100 or 200 ng/ml human IL-17A, 200 ng/ml human IL-22, 100 ng/ml human IL-23, or 50 ng/ml IFN-γ at 37° C. for 48 hours. In addition, the MEK inhibitor PD98059 was added along with stimulation by LPS or IL-17A (48 hours). The supernatants were then collected and analyzed by ELISAs, which were performed using a specific combination of paired antibodies (capture and detection antibodies).

IL-8 = IL-8 production by keratinocytes (ELISA); details: HaCaT and HEKn cells subjected to immune stimuli, ELISA
Method: as §1

galectin-7 = experiment: Galectin-7 expression in keratinocytes (real-time PCR, immunoblot); details: HaCaT cells, treated with cytokines for 2 days, immunoblot
Method: Human keratinocyte cell line HaCaT was maintained at 37° C. in Dulbecco's modified Eagle's medium (DMEM) supplemented with 10% of fetal bovine serum (FBS), 2 mM glutamine, 100 U/ml penicillin and 100 μg/ml streptomycin. Short hairpin RNA (shRNA) reagents were obtained from the National RNAi Core Facility located at the Institute of Molecular Biology and Genomic Research Center, Academia Sinica, supported by the National Core Facility Program for Biotechnology Grants of NSC. Four shRNAs with clone IDs of TRCN0000057393, TRCN0000057394, TRCN0000057395, and TRCN0000057396 were used to generate stable galectin-7 knockdown HaCaT clones. HaCaT cells were infected with one of the four shRNA-expressing lentiviruses and puromycin was employed to select stable cell clones after 3 days of infection. After puromycin selection, four individual pooled clones were cultured in puromycin-free medium for 2 weeks before further analysis. […]
Cells were harvested and lysed in RIPA lysis buffer containing 1% of Triton X-100 and a protease inhibitor cocktail, and total protein concentrations were measured with a protein assay kit. Proteins in the samples of the lysates with the same amounts of total protein were separated by sodium dodecyl sulfate polyacrylamide gel electrophoresis (SDS-PAGE) and analyzed by immunoblotting. […] Protein quantification was performed by software. […]

Molecule | IL-6 production (IL-6) | IL-8 production (IL-8) | galectin-7 protein expression (galectin-7)
B1 | only IL-17A (FIG. 2), TNF-α, and LPS (data not shown) induced | only IL-17A (FIG. 2), TNF-α, and LPS (data not shown) induced | 
B2 | only IL-17A (FIG. 2), TNF-α, and LPS (data not shown) induced | only IL-17A (FIG. 2), TNF-α, and LPS (data not shown) induced | modest effects
